Source: PMC7688639

What was measured:
[1] = target: actin filaments (F-actin) polymerised from rabbit muscle actin (rabbit) (UniProt P68135); assay: single-molecule TIRF binding kinetics (dwell times); as a1, with 1 µM jasplakinolide added after the filaments had been tethered
[2] = target: actin filaments (F-actin) polymerised from rabbit muscle actin (rabbit) (UniProt P68135); assay: single-molecule TIRF binding kinetics (dwell times); as a1, in the presence of 200 nM HMM
[3] = target: actin filaments (F-actin) polymerised from rabbit muscle actin (rabbit) (UniProt P68135); assay: single-molecule TIRF binding kinetics (dwell times); actin filaments tethered to a PEG/biotin-PEG coverslip by streptavidin and biotin-phalloidin; labelled binding domain in solution at ~0.05–0.1 nM; 25 mM imidazole, 25 mM KCl, 4 mM MgCl2, 1 mM EGTA, 1 mM DTT, pH 7.4, 10 µg/mL beta casein; double exponential fit of the CDF, bleaching corrected
[4] = target: actin filaments (F-actin) polymerised from rabbit muscle actin (rabbit) (UniProt P68135); assay: single-molecule TIRF binding kinetics (dwell times); as a1, in the presence of 200 nM drebrin 1–300
[5] = target: actin filaments (F-actin) polymerised from rabbit muscle actin (rabbit) (UniProt P68135); assay: single-molecule TIRF binding kinetics (dwell times); dual colour with 10 nM Atto-488-cofilin and Alexa-555-utrn (0.05–0.1 nM), 450 ms per frame; events near (<30 nm) a cofilin binding event; only τ1 fitted
[6] = target: actin filaments (F-actin) polymerised from rabbit muscle actin (rabbit) (UniProt P68135); assay: single-molecule TIRF binding kinetics (on-rate); tethered actin filaments; frequency of binding events for a range of concentrations of actin-binding domain, linear regression of frequency against concentration
[7] = target: actin filaments (F-actin) polymerised from rabbit muscle actin (rabbit) (UniProt P68135); assay: single-molecule TIRF binding kinetics (dwell times); as a1, with 1 µM phalloidin added after the filaments had been tethered
[8] = target: actin filaments (F-actin) polymerised from rabbit muscle actin (rabbit) (UniProt P68135); assay: single-molecule TIRF binding kinetics (dwell times); dual colour with 10 nM Atto-488-cofilin and Alexa-555-utrn (0.05–0.1 nM), 450 ms per frame; events far (>30 nm) from a cofilin binding event
[9] = target: actin filaments (F-actin) polymerised from rabbit muscle actin (rabbit) (UniProt P68135); assay: single-molecule TIRF binding kinetics (dwell times); as a1, actin filaments co-polymerized with 5 µM biotin-phalloidin

- dwell time τ1 (first timescale) [1]: 0.47 s
- dwell time τ1 (first timescale) [2]: 0.4 s
- average dwell time (τav) [3]: 0.8 s
- dwell time τ1 (first timescale) [3]: 0.42 s
- ratio of the two dwell-time scales (τ2/τ1) [3]: 9.6
- dwell time τ1 (first timescale) [4]: 0.34 s
- dwell time τ1 (first timescale) [5]: 0.57 s
- kon [6]: 2.1e+06 M⁻¹ s⁻¹
- dwell time τ1 (first timescale) [7]: 0.49 s
- dwell time τ1 (first timescale) [8]: 0.44 s
- dwell time τ1 (first timescale) [9]: 0.41 s
Substance: utrophin actin-binding domain Δ-nterm Q33A T36A (domain or fragment)
